{
  "source": "patent US20240035012A1",
  "about": "(WESTLAKE UNIVERSITY, published 2024)",
  "binders": {"B1": {"name": "ACE2 M2-AP15-foldon (receptor)", "chain": "QSTIEEQAKYFLDKFNHEAEDLFYQSSLASWNYNTNITEENVQNMNNAGDKWSAFLKEQSTYAQMYPLQEIQNLTVKLQLQALQQNGSSVLSEDKSKRLNTILNTMSTIYSTGKVCNPDNPQECLLLEPGLNEIMANSLDYNERLWAWESWRSEVGKQLRPLYEEYVVLKNEMARANHYEDYGDYWRGDYEVNGVDGYDYSRGQLIEDVEHTFEEIKPLYEHLHAYVRAKLMNAYPSYISPIGCLPAHLLGDMWGRFWTNLYSLTVPFGQKPNIDVTDAMVDQAWDAQRIFKEAEKFFVSVGLPNMTQGFWEYSMLTDPGNVQKAVCHPTAWDLGKGDFRILMCTKVTMDDFLTAHHEMGHIQYDMAYAAQPFLLRNGANEGFHEAVGEIMSLSAATPKHLKSIGLLSPDFQEDNETEINFLLKQALTIVGTLPFTYMLEKWRWMVFKGEIPKDQWMKKWWEMKREIVGVVEPVPHDETYCDPASLFHVSNDYSFIRYYTRTLYQFQFQEALCQAAKHEGPLHKCDISNSTEAGQKLFNMLRLGKSEPWTLALENVVGAKNMNVRPLLNYFEPLFTWLKDQNKNSFVGWSTDWSPYADGSAPAPAPAPAPAPAPAPAPAPAPAPAPAPAPGSGYIPEAPRDGQAYVRKDGEWVLLSTFL"}, "B2": {"name": "ACE2 M5-AP15-foldon (receptor)", "chain": "B1 chain with H17A"}, "B3": {"name": "ACE2 M1-AP15-foldon (receptor)", "chain": "B1 chain with Y10T, K14F, H17I, E18Q, Y62L, Y313N"}, "B4": {"name": "ACE2 M4-AP15-foldon (receptor)", "chain": "B1 chain with K14F, H17I, E18Q"}},
  "note": "Positions count from the first letter of the chain named. Several values for one entry are separate records, joined by “and”; a condition that tells them apart may be missing. Equal values may be shown once.",
  "data": [
    {"biological_target": "SARS-CoV-2 spike protein (SARS-CoV-2-S) (SARS-CoV-2, UniProt P0DTC2 14-1273)", "test": "cell-based or functional assay", "values": [
      {"binder": "B1", "IC50, inhibition of SARS-CoV-2 pseudotyped virus (luciferase), Caco-2 cells": "0.071 µg/ml and 0.177 nM"},
      {"binder": "B2", "IC50, inhibition of SARS-CoV-2 pseudotyped virus (luciferase), Caco-2 cells": "0.052 µg/ml and 0.13 nM"},
      {"binder": "B3", "IC50, inhibition of SARS-CoV-2 pseudotyped virus (luciferase), Caco-2 cells": "0.202 µg/ml and 0.505 nM"},
      {"binder": "B4", "IC50, inhibition of SARS-CoV-2 pseudotyped virus (luciferase), Caco-2 cells": "0.071 µg/ml and 0.177 nM"}
    ]}
  ]
}
